Reference: article PMC9667838 (Cell Discovery, 2022)

Molecular target: T1, Full-length human His-tagged angiotensin-converting enzyme 2 (ACE2) (human, UniProt Q9BYF1)
T1 construct: also called hACE2
Assay: cryo-EM structure
Conditions: both partners purified

T1 sequence (Q9BYF1 18-805): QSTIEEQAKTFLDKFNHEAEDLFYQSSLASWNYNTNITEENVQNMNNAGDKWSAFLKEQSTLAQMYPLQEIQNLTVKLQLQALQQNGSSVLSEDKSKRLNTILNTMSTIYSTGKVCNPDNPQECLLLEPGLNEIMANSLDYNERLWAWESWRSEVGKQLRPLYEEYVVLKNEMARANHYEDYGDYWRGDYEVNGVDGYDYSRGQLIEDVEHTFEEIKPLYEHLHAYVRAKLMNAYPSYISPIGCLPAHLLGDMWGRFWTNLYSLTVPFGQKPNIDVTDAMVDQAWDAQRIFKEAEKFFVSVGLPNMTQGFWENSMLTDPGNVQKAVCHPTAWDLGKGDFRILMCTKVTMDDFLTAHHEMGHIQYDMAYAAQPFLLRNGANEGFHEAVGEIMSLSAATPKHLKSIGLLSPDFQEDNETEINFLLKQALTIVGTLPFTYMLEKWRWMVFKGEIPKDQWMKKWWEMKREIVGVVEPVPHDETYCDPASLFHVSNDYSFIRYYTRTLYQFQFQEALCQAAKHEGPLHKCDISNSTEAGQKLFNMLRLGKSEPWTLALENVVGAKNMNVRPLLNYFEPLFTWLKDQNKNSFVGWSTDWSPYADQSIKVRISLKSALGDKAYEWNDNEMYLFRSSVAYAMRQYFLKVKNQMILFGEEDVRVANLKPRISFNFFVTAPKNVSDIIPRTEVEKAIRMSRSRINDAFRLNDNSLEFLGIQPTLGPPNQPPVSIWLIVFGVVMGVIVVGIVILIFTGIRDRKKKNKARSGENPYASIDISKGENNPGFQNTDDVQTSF

B1: Full-length human Flag-tagged SIT1 (SLC6A20) (natural protein)
chain: MEKARPLWANSLQFVFACISYAVGLGNVWRFPYLCQMYGGGSFLVPYIIMLIVEGMPLLYLELAVGQRMRQGSIGAWRTISPYLSGVGVASVVVSFFLSMYYNVINAWAFWYLFHSFQDPLPWSVCPLNGNHTGYDEECEKASSTQYFWYRKTLNISPSLQENGGVQWEPALCLLLAWLVVYLCILRGTESTGKVVYFTASLPYCVLIIYLIRGLTLHGATNGLMYMFTPKIEQLANPKAWINAATQIFFSLGLGFGSLIAFASYNEPSNNCQKHAIIVSLINSFTSIFASIVTFSIYGFKATFNYENCLKKVSLLLTNTFDLEDGFLTASNLEQVKGYLASAYPSKYSEMFPQIKNCSLESELDTAVQGTGLAFIVYTEAIKNMEVSQLWSVLYFFMLLMLGIGSMLGNTAAILTPLTDSKIISSHLPKEAISGLVCLVNCAIGMVFTMEAGNYWFDIFNDYAATLSLLLIVLVETIAVCYVYGLRRFESDLKAMTGRAVSWYWKVMWAGVSPLLIVSLFVFYLSDYILTGTLKYQAWDASQGQLVTKDYPAYALAVIGLLVASSTMCIPLAALGTFVQRRLKRGDADPVA
binding result: binds
